Here are results for two substances from patent US20260014245A1.

In assay [1] the target is DPP4/CD26 on human CD3 expressing T cells (human) (UniProt P27487). In words: flow cytometry of human PBMCs, MERS-RBD - AF488 against CD3 - PerCP-Cy5. For orientation: A flow cytometer gives signals particle by particle.
Assay [2] concerns the target MERS-CoV RBD (wild type, amino acids G372-L588, AviTag, Twin Strep tag, 6xHis) (MERS-CoV). In words: rabbit DPP4.

Sequence of DPP4/CD26 on human CD3 expressing T cells (human) (P27487 whole entry, the tested form may be a part): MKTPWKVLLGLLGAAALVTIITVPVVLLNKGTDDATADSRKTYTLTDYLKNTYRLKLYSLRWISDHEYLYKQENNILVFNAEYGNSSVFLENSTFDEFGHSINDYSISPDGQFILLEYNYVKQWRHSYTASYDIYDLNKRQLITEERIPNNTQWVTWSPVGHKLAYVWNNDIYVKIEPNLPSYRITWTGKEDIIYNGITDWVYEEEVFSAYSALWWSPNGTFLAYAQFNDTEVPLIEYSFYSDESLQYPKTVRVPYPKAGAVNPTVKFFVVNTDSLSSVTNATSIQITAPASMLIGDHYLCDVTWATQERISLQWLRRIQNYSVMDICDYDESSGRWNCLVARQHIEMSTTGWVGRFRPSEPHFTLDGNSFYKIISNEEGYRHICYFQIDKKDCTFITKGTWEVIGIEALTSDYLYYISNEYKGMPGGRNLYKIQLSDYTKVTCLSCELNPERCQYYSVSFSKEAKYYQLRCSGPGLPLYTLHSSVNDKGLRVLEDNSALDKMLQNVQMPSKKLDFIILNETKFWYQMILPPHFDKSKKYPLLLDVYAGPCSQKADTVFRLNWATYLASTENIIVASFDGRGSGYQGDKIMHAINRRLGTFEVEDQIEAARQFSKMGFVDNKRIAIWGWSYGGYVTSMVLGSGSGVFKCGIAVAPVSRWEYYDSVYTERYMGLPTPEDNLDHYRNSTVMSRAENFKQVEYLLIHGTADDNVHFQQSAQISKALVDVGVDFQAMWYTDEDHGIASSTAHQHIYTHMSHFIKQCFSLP

For the substance “MERS-CoV RBD (wild type, amino acids G372-L588, AviTag, Twin Strep tag, 6xHis) (ligand; other documents disagree on this pair)”, the CD3+ MERS-RBD+ quadrant frequency (percent of gated DAPI- lymphocytes) in assay [1] was determined as 4.92. Turning to “recombinant rabbit DPP4 with a C-terminal 6xHis-tag (rbDPP4-His) (from UniProt A0A5F9CKR3 29-732) (receptor)”, the Kd (usually the equilibrium constant for the complex coming apart) in assay [2] was determined as 34.3 nM.
